Measurements from patent publication US11713337B2, “Peptide, compositions and method for delivery of agents into cells and tissues” (priority 2019, dated 2023).
Where “and” joins values, the source holds several entries; their conditions need not be identical. Equal values may be shown once. Entries after “also recorded” stand apart in the source; their conditions may differ. Peptide text beside a SMILES is read from it. * marks the point of attachment. 5FAM = O=C1OC2(c3ccc(O)cc3Oc3cc(O)ccc32)c2ccc(C(=O)*)cc21

Experiments:
retina [1] = experiment: Retinal penetration of FAM-labeled Nuc1 after intravitreal injection
Method: Intravitreal and subretinal injections: Mice were anesthetized by injecting intraperitoneally a cocktail mixture containing Ketamine (100 mg/kg, Phoenix™, St Joseph, Mo.) and Xylazine (10 mg/kg, Lloyed, Shenandoah, Iowa) followed by topical application of 0.5% proparacaine hydrochloride (Akorn Inc., Lake Forest, Ill., USA) for topical analgesia to the cornea. Mice were kept warm during anesthesia. lntravitreal and subretinal injections were performed using a 32-gauge needle and a 5μI glass syringe, as previously described (Cashman et al., 2015). […] Four hours post injection (as indicated), eyes were enucleated and fixed in 4% paraformaldehyde. […] Retinal cryosections were taken using a Micron 550 cryostat.
Four hours post injection, eyes of these mice were enucleated and fixed in 4% paraformaldehyde. Retinal cryosections were generated using a Micron 550 cryostat and sections were imaged using a fluorescent microscope.

retina [2] = settings: 1 μg dexamethasone alone or with 1 μg Nuc1
Method: We hypothesized that Nuc1 may facilitate penetration of steroids into tissues, enabling a steroid to be applied in a reduced dosage without loss of efficacy. To test this hypothesis, we injected either 1 μg fluorescently labeled dexamethasone alone or fluorescently labeled dexamethasone in combination with 1 μg Nuc1.

[3] = system: alkali burn of the cornea; experiment: Alkali burn of the cornea: corneal opacity and H+E histology; assay type: in vivo, C57BL/6 mice
Source text: (§1) Mice were kept warm during anesthesia. Alkali burn was induced in the cornea by applying 2 mm filter paper discs soaked with 1N sodium hydroxide (NaOH) on the central cornea of the right eye for 30 seconds. The filter paper was gently removed from the cornea and the cornea rinsed with phosphate buffered saline (PBS) 10 times to clear residual NaOH. The left eye was left unexposed to NaOH and served as a control. […] The treatments were applied topically once a day for seven days. Images of the eye were captured on day 7 using a digital camera. After 7 days, mice were sacrificed by CO2 inhalation, followed by cervical dislocation. The eyes were enucleated and fixed in 4% paraformaldehyde. Corneal cryosections were taken using a Micron 550 cryostat.
Histopathology: The eyes were harvested for histology 7 days post-treatment and fixed in Hartman's fixative. After 48 hours, the specimens were dehydrated through alcohol steps and embedded in paraffin. […] sections were cut at different planes, including the optic nerve region, and stained with Hematoxylin & Eosin (H&E). Imaging of stained sections was performed using an Olympus BX51 microscope using a Retiga 2000r camera.
On day 7, mice were sacrificed for imaging of corneas (FIG. 14A). […] Mice were scored for clinical opacity based on method described by Anderson et al.. […]

[4] = system: alkali burn of the cornea; experiment: Alkali burn of the cornea: staining of corneal cryosections (isolectin, SMA, CD45, F4/80, TGF-β1, activated Caspase-3); assay type: in vivo, C57BL/6 mice
Source text: The filter paper was gently removed and the cornea was rinsed with phosphate buffered saline (PBS) 10 times. […] The treatments were applied topically once a day for seven days. After 7 days, mice were sacrificed by CO2 inhalation. Eyes were enucleated and fixed in 4% paraformaldehyde. Corneal cryosections were taken using a Micron 550 cryostat and stained for α-actin, a marker of fibrosis.
as §1
Immunochemistry: Cryosections were air dried for 10 minutes and washed in PBS for 5 minutes. They were subsequently incubated in 6% normal goat serum and PBS-Triton for 1 hour at room temperature for permeabilization and blocking. The slides were incubated with FITC-conjugated isolectin or with primary antibody against one of following: α-smooth muscle actin (SMA), glial fibrillary acidic protein (GFAP), CD45, transforming growth factor beta (TGF-β1), F4/80, transforming growth factor beta (TGF-β1) (Abcam; ab92486), or activated Caspase-3. This incubation was performed at 4° C. in a moist chamber overnight. For samples treated with antibodies, detection was performed by incubation with a secondary Cy3-conjugated goat anti-rabbit/anti-mouse antibody (Jackson lmmunoResearch, West Grove, Pa.) for 1 hour at room temperature. The slides were washed three times with PBS and mounted in Vectashield anti fade mounting medium containing DAPI to counterstain the nuclei. Imaging of stained sections was performed using an Olympus IX51 microscope and appropriate filters. Images were captured using a Retiga 2000r camera. The intensity of the antibody specific staining was quantified using ImageJ software.

[5] = system: alkali burn of the cornea; experiment: Alkali burn of the cornea: multiplex ELISA of cytokines in corneal lysates; assay type: in vivo, C57BL/6 mice; settings: 7 days topical treatment, Bioplex
Source text: as §1
Multiplex ELISA: Multiplex ELISA was performed to detect IL-6, IL-17, IL-10, IFN-G, TNF-α, and IL-1β using Bio-plex pro mouse cytokineTh17 A 6 plex group I (Bio-Rad, M6000007NY), as per the manufacturer's instructions. Briefly, alkali burn was induced as described above. Mice were sacrificed on day 7 and corneas were extracted. The corneas were dissected into small pieces and stored at −80° C. in Bioplex cell lysis buffer. Two corneas were pooled together for each sample and 50 μl of the lysate was used in duplicate for each sample. The samples were run using the Bio plex manager MP software and the data was analyzed using Bioplex manager 6.0.

[6] = system: alkali burn of the cornea; experiment: Alkali burn of the cornea: TUNEL assay on corneal cryosections; assay type: in vivo, C57BL/6 mice; settings: 7 days topical treatment
Source text: as §1
TUNEL assay: To detect cell death, the terminal deoxynucleotidyl transferase-mediated dUTP-biotin nick-end labeling (TUNEL) method was performed on corneal cryosections using the In Situ Death Detection Kit, TMR Red (Sigma), as per the manufacturer's instructions. The sections were imaged, as described above, and images used for quantification of TUNEL positive cells using ImageJ (FIJI version and plug in), as previously described.

[7] = system: gliosis in the retina after alkali burn; experiment: Alkali burn of the cornea: GFAP staining of retina (gliosis); assay type: in vivo, C57BL/6 mice; settings: topical to cornea for 7 days after alkali burn
Source text: as §1
Immunochemistry: Cryosections were air dried for 10 minutes and washed in PBS for 5 minutes. They were subsequently incubated in 6% normal goat serum and PBS-Triton for 1 hour at room temperature for permeabilization and blocking. The slides were incubated with FITC-conjugated isolectin or with primary antibody against one of following: α-smooth muscle actin (SMA), glial fibrillary acidic protein (GFAP), CD45, transforming growth factor beta (TGF-β1), F4/80, transforming growth factor beta (TGF-β1) (Abcam; ab92486), or activated Caspase-3. […] The intensity of the antibody specific staining was quantified using ImageJ software. […]

[8] = system: floxed stop tdTomato reporter in retina; experiment: Cre recombinase uptake and gene editing in Ai9 reporter mice (tdTomato); assay type: in vivo; settings: 4 micrograms Cre recombinase alone or with 1 microgram Nuc1, intravitreal
Source text: In these mice, a reporter tdTomato transgene expression cassette is turned on when a foxed stop codon is excised by Cre recombinase. […] The observation that Cre recombinase can enter cells by itself was surprising. However, the above assay is highly sensitive due to the fact that one gene editing event is substantially amplified through the continuous production of protein that accumulates in the cell.

## O=C(O)c1ccc2c(c1)C1(OC2=O)c2ccc(O)cc2Oc2cc(O)ccc21 [6-FAM, reference compound]
Retina [1]; 1 ug in 1 ul H2O intravitreal, four hours post injection, adult mice
  localization in retina (fluorescence microscopy of cryosections): unable to penetrate retina

## CC[C@H](C)[C@H](NC(=O)[C@H](CO)NC(=O)[C@H](C)NC(=O)c1ccc2c(c1)C(=O)OC21c2ccc(O)cc2Oc2cc(O)ccc21)C(=O)N[C@@H](CCCCN)C(=O)N[C@H](C(=O)N[C@@H](C)C(=O)N[C@H](C(=O)N[C@@H](CO)C(=O)N[C@@H](C)C(=O)NCC(=O)NCC(=O)N[C@@H](CC(=O)O)C(=O)N[C@@H](CCCCN)C(=O)N1CCC[C@H]1C(=O)N[C@@H](CCCNC(=N)N)C(=O)N[C@@H](CCCNC(=N)N)C(=O)O)C(C)C)C(C)C [FAM labeled Nuc1] (5FAM-ASIKVAVSAGGDKPRR-OH)
Retina [1]; mouse, in vivo
  localization in retina (fluorescence microscopy of cryosections): localized to all layers of the retina

## C[C@@H]1C[C@H]2[C@@H]3CCC4=CC(=O)C=C[C@]4(C)[C@@]3(F)[C@@H](O)C[C@]2(C)[C@@]1(O)C(=O)CO [dexamethasone]
Retina [2]
  uptake of fluorescently labeled dexamethasone into the retina: taken up into the retina

B1: decorin: human recombinant decorin, a small leucine rich proteoglycan (protein, UniProt P07585 31-359, looked up)
Decorin: DEASGIGPEVPDDRDFEPSLGPVCPFRCQCHLRVVQCSDLGLDKVPKDLPPDTTLLDLQNNKITEIKDGDFKNLKNLHALILVNNKISKVSPGAFTPLVKLERLYLSKNQLKELPEKMPKTLQELRAHENEITKVRKVTFNGLNQMIVIELGTNPLKSSGIENGAFQGMKKLSYIRIADTNITSIPQGLPPSLTELHLDGNKISRVDAASLKGLNNLAKLGLSFNSISAVDNGSLANTPHLRELHLDNNKLTRVPGGLAEHKYIQVVYLHNNNISVVGSSDFCPPGHNTKKASYSGVSLFSNPVQYWEIQPSTFRCVYVRSAIQLGNYK
[3]; 7 days topical treatment, relative to PBS
  corneal histology (H+E transverse sections): increase in thickness of the epithelium; also recorded: vacuolization was apparent
[3]; topical once daily for 7 days from 24 hours post alkali burn, PBS scored 4
  clinical opacity score (method of Anderson et al.): 2.8
[4]; 7 days topical treatment
  CD45 staining of cornea, images (leukocytes): reduction in CD45 and F4/80 staining in the anterior region of the stroma
  F4/80 staining of cornea, images (macrophages): reduction in CD45 and F4/80 staining in the anterior region of the stroma
  SMA staining of cornea, images (fibrosis): modest reduction of SMA staining
  TGF-β1 expression in cornea (antibody staining): lower expression of TGF-β1
  activated Caspase-3 staining of cornea, images, relative to PBS treated mice: considerable reduction in the staining for activated Caspase-3 in the stroma and endothelium
  isolectin (GSL I) staining of cornea, images (neovascularization): obvious reduction in isolectin staining
  reduction in CD45 staining / CD45-positive cells relative to corneas treated with PBS: 39.6%
  reduction in F4/80 staining relative to corneas treated with PBS: no significant reduction
  reduction in isolectin staining relative to PBS treated corneas (quantification): not significantly different to that of PBS treated corneas
[4]; 7 days topical treatment, reference PBS treated (implied)
  reduction in activated Caspase-3 staining (quantification of fluorescent signal): 51.5%
[4]; topical 0.5 μg decorin with or without 0.5 μg Nuc1 once a day for seven days, from 24 hours after NaOH
  reduction in α-actin (SMA) staining relative to PBS (fibrosis): 33.3% and 33.25%
[5]
  IFN-G expression in corneal lysate relative to PBS treated mice: reduction in expression
  IL-1β expression in corneal lysate: increased expression
  IL-6 expression in corneal lysate relative to PBS treated mice: reduction in expression
  IL-17 expression in corneal lysate relative to PBS treated mice: reduction in expression
  TNF-α expression in corneal lysate relative to PBS treated mice: reduction in expression
[6]
  TUNEL staining of cornea, images (cell death): considerable reduction in TUNEL staining in the corneal stroma
  reduction in TUNEL staining relative to PBS (quantification): 44.8%
[7]
  GFAP staining of retina (Muller cell activation, gliosis): reduced staining relative to the retinas of mice treated with PBS

B2: Cre recombinase: Cre recombinase protein, approximately 38 Kd (protein, UniProt P06956 1-343, looked up)
Recombinase cre: MSNLLTVHQNLPALPVDATSDEVRKNLMDMFRDRQAFSEHTWKMLLSVCRSWAAWCKLNNRKWFPAEPEDVRDYLLYLQARGLAVKTIQQHLGQLNMLHRRSGLPRPSDSNAVSLVMRRIRKENVDAGERAKQALAFERTDFDQVRSLMENSDRCQDIRNLAFLGIAYNTLLRIAEIARIRVKDISRTDGGRMLIHIGRTKTLVSTAGVEKALSLGVTKLVERWISVSGVADDPNNYLFCRVRKNGVAAPSATSQLSTRALEGIFEATHRLIYGAKDDSGQRYLAWSGHSARVGAARDMARAGVSIPEIMQAGGWTNVNIVMNYIRNLDSETGAMVRLLEDGD
[8]
  tdTomato positive Muller cells: almost no Muller cells expressing tdTomato
  tdTomato reporter expression in retina: detectable tdTomato expression
